Experimental findings from patent publication US7070771 are described below.

This assay concerns the target CD40 (human, on CLL B cells and CD40-positive tumor cell lines) (human) (UniProt P25942). The assay can be described thus: cell-based or functional assay.
UniProt P25942, sequence (P25942 21-277): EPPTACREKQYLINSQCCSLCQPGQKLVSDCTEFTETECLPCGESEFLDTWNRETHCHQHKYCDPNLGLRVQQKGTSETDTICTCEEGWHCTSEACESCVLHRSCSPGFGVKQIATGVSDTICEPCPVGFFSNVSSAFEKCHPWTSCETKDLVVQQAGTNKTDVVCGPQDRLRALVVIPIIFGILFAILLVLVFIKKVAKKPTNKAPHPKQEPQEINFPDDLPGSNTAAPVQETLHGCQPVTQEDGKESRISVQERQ

As to “G28-5 (an anti-CD40 monoclonal antibody)”, the % positive cells, Human CD80 (CLL cells) came out at 26.7%.
